# Measurements from patent US10047131B2, “Peptides and combination of peptides for use in immunotherapy against ovarian cancer and other cancers” (immatics biotechnologies GmbH, priority 2015, dated 2018).
# Biological target: HLA-A*02:01 (Homo sapiens, UniProt P04439, D140Y/D185E/D98H/E176V/E277Q/G131W/G231S/I119V/I121R/I166T/I218V/L300P/L318F/N151K/N90K/P208A/P217A/Q86G/Q94H/R138H/R169H/T345S)
# Test: MHC binding assay (UV-ligand exchange, ELISA of exchange yield)
# Conditions: binding to HLA-A*02:01, UV-ligand exchange
# How it was run: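 Peptide–MHC complexes made by UV-ligand exchange, where a UV-cleavable peptide is replaced by the test peptide. Exchange yield measured by ELISA: complexes diluted 100-fold on streptavidin-coated plates, stabilized complexes detected with HRP anti-β2m, TMB read at 450 nm.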
row,Substance,"Peptide exchange (MHC class I binding score, peptide exchange yield)"
1,311 (RLYTGMHTV; listed as Homo sapiens) [compound 311],“+++” (≥50 = +++)
2,162 (YQQAQVPSV; listed as Homo sapiens) [compound 162],“+++” (≥50 = +++)
3,330 (QLALKVEGV; listed as Homo sapiens) [compound 330],“+++” (≥50 = +++)
4,121 (GVVDPRAISVL; listed as Homo sapiens) [compound 121],“++” (≥20% = ++)
5,118 (KLIDNNINV; listed as Homo sapiens) [compound 118],“+++” (≥50 = +++)
6,432 (TLIEESAKV; listed as Homo sapiens) [compound 432],“++” (≥20% = ++)
7,49 (YLPAVFEEV; listed as Homo sapiens) [compound 49],“+++” (≥50 = +++)
8,267 (ALQDFLLSV; listed as Homo sapiens) [compound 267],“+++” (≥50 = +++)
9,558 (GLLENIPRV; listed as Homo sapiens) [compound 558],“+++” (≥50 = +++)
10,584 (ALAEVAAMENV; listed as Homo sapiens) [compound 584],“+++” (≥50 = +++)
11,565 (ALQETPTSV; listed as Homo sapiens) [compound 565],“++” (≥20% = ++)
12,179 (KVLNELYTV; listed as Homo sapiens) [compound 179],“+++” (≥50 = +++)
13,343 (SLLEVNEESTV; listed as Homo sapiens) [compound 343],“+++” (≥50 = +++)
14,12 (SLWPDPMEV; listed as Homo sapiens) [compound 12],“+++” (≥50 = +++)
15,46 (ILTEENIHL; listed as Homo sapiens) [compound 46],“+++” (≥50 = +++)
16,101 (ILVGGGALATV; listed as Homo sapiens) [compound 101],“+++” (≥50 = +++)
17,178 (ALTEIAFVV; listed as Homo sapiens) [compound 178],“++++” (≥75% = ++++)
18,479 (SLFGNSGILENV; listed as Homo sapiens) [compound 479],“+++” (≥50 = +++)
19,103 (TLAEEVVAL; listed as Homo sapiens) [compound 103],“+++” (≥50 = +++)
20,181 (LLWAGTAFQV; listed as Homo sapiens) [compound 181],“+++” (≥50 = +++)
21,132 (LLVEQPPLAGV; listed as Homo sapiens) [compound 132],“+++” (≥50 = +++)
22,108 (ALFPGVALLLA; listed as Homo sapiens) [compound 108],“++++” (≥75% = ++++)
23,407 (YLMDLINFL; listed as Homo sapiens) [compound 407],“+++” (≥50 = +++)

row,Substance,"Peptide exchange (MHC class I binding score, peptide exchange yield)"
1,243 (LLLNELPSV; listed as Homo sapiens) [compound 243],“+++” (≥50 = +++)
2,303 (AILPQLFMV; listed as Homo sapiens) [compound 303],“++++” (≥75% = ++++)
3,564 (TVTNAVVTV; listed as Homo sapiens) [compound 564],“+++” (≥50 = +++)
4,514 (ILVDWLVQV; listed as Homo sapiens) [compound 514],“+++” (≥50 = +++)
5,352 (SLLELLHIYV; listed as Homo sapiens) [compound 352],“+++” (≥50 = +++)
6,599 (YLLNDASLISV; listed as Homo sapiens) [compound 599],“+++” (≥50 = +++)
7,498 (KLWTGGLDNTV; listed as Homo sapiens) [compound 498],“+++” (≥50 = +++)
8,334 (TLTKVLVAL; listed as Homo sapiens) [compound 334],“+++” (≥50 = +++)
9,71 (GILARIASV; listed as Homo sapiens) [compound 71],“+++” (≥50 = +++)
10,28 (QLLDETSAITL; listed as Homo sapiens) [compound 28],“+++” (≥50 = +++)
11,133 (KVLSNIHTV; listed as Homo sapiens) [compound 133],“++” (≥20% = ++)
12,504 (GLSDGNPSL; listed as Homo sapiens) [compound 504],“++” (≥20% = ++)
13,207 (GLTSTNAEV; listed as Homo sapiens) [compound 207],“++” (≥20% = ++)
14,557 (KLYDDMIRL; listed as Homo sapiens) [compound 557],“+++” (≥50 = +++)
15,32 (KLDDLTQDLTV; listed as Homo sapiens) [compound 32],“++” (≥20% = ++)
16,197 (ALGPEGGRV; listed as Homo sapiens) [compound 197],“++” (≥20% = ++)
17,449 (KLAEGLDIQL; listed as Homo sapiens) [compound 449],“+++” (≥50 = +++)
18,480 (ALLEDSCHYL; listed as Homo sapiens) [compound 480],“+++” (≥50 = +++)
19,369 (GLFPEHLIDV; listed as Homo sapiens) [compound 369],“+++” (≥50 = +++)
20,516 (AVGPASILKEV; listed as Homo sapiens) [compound 516],“++” (≥20% = ++)
21,164 (ALLPQPKNLTV; listed as Homo sapiens) [compound 164],“+++” (≥50 = +++)
22,513 (SLWPSPEQL; listed as Homo sapiens) [compound 513],“++” (≥20% = ++)
23,390 (ALFMKQIYL; listed as Homo sapiens) [compound 390],“+++” (≥50 = +++)

row,Substance,"Peptide exchange (MHC class I binding score, peptide exchange yield)"
1,199 (ALQDVPLSSV; listed as Homo sapiens) [compound 199],“+++” (≥50 = +++)
2,454 (KLPPPPPQA; listed as Homo sapiens) [compound 454],“+++” (≥50 = +++)
3,585 (ALWDLAADKQTL; listed as Homo sapiens) [compound 585],“++++” (≥75% = ++++)
4,241 (SLVEVNPAYSV; listed as Homo sapiens) [compound 241],“+++” (≥50 = +++)
5,618 (VLFDSESIGIYV; listed as Homo sapiens) [compound 618],“+++” (≥50 = +++)
6,85 (KMSELRVTL; listed as Homo sapiens) [compound 85],“+++” (≥50 = +++)
7,254 (TLLAFIMEL; listed as Homo sapiens) [compound 254],“+++” (≥50 = +++)
8,596 (ALLDQTKTLAESAL; listed as Homo sapiens) [compound 596],“+++” (≥50 = +++)
9,109 (IILSILEQA; listed as Homo sapiens) [compound 109],“++++” (≥75% = ++++)
10,193 (QLLDADGFLNV; listed as Homo sapiens) [compound 193],“+++” (≥50 = +++)
11,56 (KLYEGIPVLL; listed as Homo sapiens) [compound 56],“++++” (≥75% = ++++)
12,563 (WLLPYNGVTV; listed as Homo sapiens) [compound 563],“+++” (≥50 = +++)
13,465 (QLCDLNAEL; listed as Homo sapiens) [compound 465],“+++” (≥50 = +++)
14,341 (SQIALNEKLVNL; listed as Homo sapiens) [compound 341],“+++” (≥50 = +++)
15,460 (AMLEKNYKL; listed as Homo sapiens) [compound 460],“++++” (≥75% = ++++)
16,173 (LLDSASAGLYL; listed as Homo sapiens) [compound 173],“+++” (≥50 = +++)
17,550 (FLYDEIEAEVNL; listed as Homo sapiens) [compound 550],“+++” (≥50 = +++)
18,169 (NLPEYLPFV; listed as Homo sapiens) [compound 169],“+++” (≥50 = +++)
19,107 (FLQPVDDTQHL; listed as Homo sapiens) [compound 107],“+++” (≥50 = +++)
20,372 (TMLLNIPLV; listed as Homo sapiens) [compound 372],“++” (≥20% = ++)
21,321 (GLFEDVTQPGILL; listed as Homo sapiens) [compound 321],“++++” (≥75% = ++++)
